In publication PMC3668541, “Production of recombinant 1-deoxy-D-xylulose-5-phosphate synthase from Plasmodium vivax in Escherichia coli^” (FEBS Open Bio, 2013):
Each block holds one molecule with its values, some of them ahead of it.

Experiments:
[1] = target: T1, P. vivax DXScc (DXS SH-2, DXS catalytic core) (Plasmodium vivax, UniProt A5K817); test: DXS–DXR coupled assay; type: biochemical
T1 construct: gene PVX_082790; catalytic core, N-terminal first 210 residues (signal and transit peptide) deleted; codon-optimized gene in E. coli; theoretical monomer 103,921 Da; homodimer
T1 sequence (A5K817 211-1111): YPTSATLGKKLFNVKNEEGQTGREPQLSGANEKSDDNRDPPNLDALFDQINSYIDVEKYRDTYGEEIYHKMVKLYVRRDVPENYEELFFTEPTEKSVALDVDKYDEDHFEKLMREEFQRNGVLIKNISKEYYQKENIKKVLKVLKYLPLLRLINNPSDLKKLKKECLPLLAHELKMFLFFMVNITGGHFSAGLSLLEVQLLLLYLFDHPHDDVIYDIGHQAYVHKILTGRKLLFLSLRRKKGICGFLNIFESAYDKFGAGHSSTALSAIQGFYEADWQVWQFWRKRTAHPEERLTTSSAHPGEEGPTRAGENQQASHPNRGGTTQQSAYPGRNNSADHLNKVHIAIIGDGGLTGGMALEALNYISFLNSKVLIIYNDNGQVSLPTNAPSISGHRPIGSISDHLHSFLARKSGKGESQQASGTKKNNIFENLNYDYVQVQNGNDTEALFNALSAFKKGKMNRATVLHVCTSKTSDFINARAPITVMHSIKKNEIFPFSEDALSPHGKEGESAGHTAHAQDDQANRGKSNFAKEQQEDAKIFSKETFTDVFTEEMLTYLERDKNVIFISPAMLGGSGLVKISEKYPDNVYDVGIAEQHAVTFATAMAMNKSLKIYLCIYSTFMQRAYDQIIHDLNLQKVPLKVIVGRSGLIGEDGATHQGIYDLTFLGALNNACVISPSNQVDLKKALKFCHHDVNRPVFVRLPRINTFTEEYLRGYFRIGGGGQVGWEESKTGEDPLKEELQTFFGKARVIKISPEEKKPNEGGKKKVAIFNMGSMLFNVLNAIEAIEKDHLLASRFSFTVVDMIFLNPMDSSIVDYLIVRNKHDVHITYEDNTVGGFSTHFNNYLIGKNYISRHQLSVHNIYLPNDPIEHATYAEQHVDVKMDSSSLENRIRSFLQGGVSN

[2] = target: Plasmodium vivax 1-deoxy-D-xylulose-5-phosphate synthase catalytic core (DXScc) (Plasmodium vivax); test: SEC; gel filtration chromatography under non-denaturing conditions of DXScc after Ni-NTA affinity chromatography; buffer and column not shown (Supplementary material)
DXS–DXR coupled assay [3] = substrate: CC(=O)C(=O)O; test: DXS–DXR coupled assay; type: biochemical, Plasmodium vivax; settings: apparent; 0.1 mM GAP
Excerpt: (§1) DXS–DXR coupled assay on P. vivax DXScc (DXS SH-2, DXS catalytic core)

DXS–DXR coupled assay [4] = substrate: O=C[C@H](O)COP(=O)(O)O; test: DXS–DXR coupled assay; type: biochemical, Plasmodium vivax; settings: apparent; 4.0 mM pyruvate
Excerpt: as §1

Molecule: O=C(O)C(=O)CF [β-fluoropyruvate]
Ki [1]: 200 ± 100 µM

stoichiometry N [2]: 2
Molecule: Plasmodium vivax 1-deoxy-D-xylulose-5-phosphate synthase catalytic core (DXScc) (enzyme)

B1: P. vivax DXScc (DXS SH-2, DXS catalytic core) (Plasmodium vivax Sal-1) (protein)
chain: T1 sequence (A5K817 211-1111)
notes: catalytic core, N-terminal first 210 residues (signal and transit peptide) deleted; codon-optimized gene in E. coli; theoretical monomer 103,921 Da; homodimer
Km (DXS–DXR coupled assay [3]): 870 ± 110 µM
kcat (DXS–DXR coupled assay [3]): 9.5 ± 0.5 s⁻¹
kcat/Km (DXS–DXR coupled assay [3]): 11000 M⁻¹ s⁻¹
Km (DXS–DXR coupled assay [4]): 19 ± 4 µM
kcat (DXS–DXR coupled assay [4]): 11 ± 0.9 s⁻¹
kcat/Km (DXS–DXR coupled assay [4]): 570000 M⁻¹ s⁻¹
